Consider 71 molecules from US20240207421A1, “NERVE TARGETING PEPTIDES AND METHODS OF USE” (ALUME BIOSCIENCES, INC., priority 2020, published 2024).

The chains are these.
B1: … (peptide)
peptide: RNLHYPLNHPFM
B2: … (peptide)
peptide: SVLSTGTANQRH
B3: … (peptide)
peptide: CTDGRNFVC
B4: VPSYILR (peptide)
peptide: VPSYILR
B5: … (peptide)
peptide: SPDRTNWGWQTN
B6: … (peptide)
peptide: QPTPSQIKFTRT
B7: … (peptide)
peptide: CQTSGHHQC
B8: … (peptide)
peptide: QGWEFQVPARHS
B9: STNVQRA (peptide)
peptide: STNVQRA
B10: … (peptide)
peptide: AQNLRVHAWASL
B11: QLQHVHL (peptide)
peptide: QLQHVHL
B12: … (peptide)
peptide: CKSPAIKGC
B13: … (peptide)
peptide: SVQTPMWRSLVG
B14: … (peptide)
peptide: TILKPAAQGFAD
B15: … (peptide)
peptide: ETGGLAYGSGQK
B16: … (peptide)
peptide: LGSSRSPSSFLG
B17: … (peptide)
peptide: DSLYRGMHQPRI
B18: … (peptide)
peptide: CQGWPRPMC
B19: … (peptide)
peptide: CNSWKAAKC
B20: … (peptide)
peptide: SLPYAASLNSVE
B21: … (peptide)
peptide: TTLWLDRDEALK
B22: … (peptide)
peptide: TALSHRHEAMRW
B23: … (peptide)
peptide: GGWQSLWDKPEH
B24: … (peptide)
peptide: HPAWADFFTMSS
B25: HTQIHRL (peptide)
peptide: HTQIHRL
B26: … (peptide)
peptide: EYVKFSHSPRTY
B27: … (peptide)
peptide: AVRPLGLPDNHR
B28: … (peptide)
peptide: GLLDWGSLQGGN
B29: … (peptide)
peptide: VIADQSKSAVAV
B30: IDLSLRS (peptide)
peptide: IDLSLRS
B31: … (peptide)
peptide: CPMHQSKTC
B32: … (peptide)
peptide: IDQSGLQKSGMK
B33: … (peptide)
peptide: KFADTKLTSLRY
B34: … (peptide)
peptide: CIGGPHRNC
B35: … (peptide)
peptide: SVESNSKLTMPR
B36: … (peptide)
peptide: LGYGQGTPHRSN
B37: … (peptide)
peptide: SVVGWAAPRTAQ
B38: … (peptide)
peptide: NGHEVQSRAANR
B39: … (peptide)
peptide: SYTATWSEMSRS
B40: … (peptide)
peptide: CTGETLLTC
B41: … (peptide)
peptide: CTWKHRDNC
B42: … (peptide)
peptide: QGWKDRLPIWRY
B43: … (peptide)
peptide: GWTSDLSRNVRG
B44: WRSPLTT (peptide)
peptide: WRSPLTT
B45: … (peptide)
peptide: RALDRYLPWSPH
B46: … (peptide)
peptide: FNSDSRSTHQED
B47: … (peptide)
peptide: NHDQGSLTRWRS
B48: TKGIAPK (peptide)
peptide: TKGIAPK
B49: GSPEKRT (peptide)
peptide: GSPEKRT
B50: KASIAYD (peptide)
peptide: KASIAYD
B51: … (peptide)
peptide: SWHFTGTPFMNR
B52: … (peptide)
peptide: CKSERGPEC
B53: … (peptide)
peptide: GINLRALDLHAN
B54: … (peptide)
peptide: QTFGYSMFNVRT
B55: … (peptide)
peptide: CTSSSHQTC
B56: TSAVSLR (peptide)
peptide: TSAVSLR
B57: … (peptide)
peptide: HQSVTGVRSHFH
B58: … (peptide)
peptide: GIVPSRHTTGLG
B59: GPLLFRG (peptide)
peptide: GPLLFRG
B60: … (peptide)
peptide: SLLSVVNTSSKS
B61: TAPRWTQ (peptide)
peptide: TAPRWTQ
B62: … (peptide)
peptide: CTAWTRQEC
B63: … (peptide)
peptide: EVERILTPHVNN
B64: … (peptide)
peptide: TVARSTAQERSI
B65: … (peptide)
peptide: GPMLKNLSDAVT
B66: … (peptide)
peptide: SHDVANGTSVRT
B67: … (peptide)
peptide: CSRAGLSAC
B68: … (peptide)
peptide: VVPSWPSVHRPP
B69: … (peptide)
peptide: CSSQAKRSC
B70: … (peptide)
peptide: EDRMMTYRYTST
B71: WPMMQTR (peptide)
peptide: WPMMQTR

This experiment has as its target Laminin 421/521. Description: phage display, NGS count.
In turn, B1 came in with a Count of 30.

The molecule B2 had a Count of 28.

As to B3, the Count was 28.

B4 yielded a Count of 30.

B5 displayed a Count of 29.

B6 showed a Count of 28.

Molecule B7 returned a Count of 31.

B8 showed a Count of 30.

B9 had a Count of 28.

On to B10, for which the Count was found to be 28.

With B11, the Count amounted to 28.

In turn, B12 had a Count of 29.

On to B13, for which the Count was 28.

As to B14, the Count came out at 27.

Molecule B15 yielded a Count of 28.

The molecule B16 showed a Count of 29.

B17: the Count was 29.

With B18, the Count is 30.

As for B19, the Count turned out to be 29.

Molecule B20 returned a Count of 28.

B21 yielded a Count of 27.

As to B22, the Count amounted to 28.

The molecule B23 gave a Count of 31.

The molecule B24 showed a Count of 29.

As to B25, the Count is 28.

As to B26, the Count was determined as 31.

B27 yielded a Count of 29.

With B28, the Count was 30.

Molecule B29 returned a Count of 27.

On to B30, for which the Count is 29.

For the molecule B31, the Count was determined as 28.

Regarding B32, the Count came to 29.

The molecule B33 came in with a Count of 28.

Regarding B34, the Count was 29.

Regarding B35, the Count worked out at 29.

On to B36, for which the Count was 30.

With B37, the Count is 27.

The molecule B38 registered a Count of 29.

For the molecule B39, the Count was determined as 28.

The molecule B40 displayed a Count of 28.

Molecule B41 displayed a Count of 30.

The molecule B42 had a Count of 29.

Molecule B43 yielded a Count of 28.

In turn, B44 returned a Count of 30.

B45 returned a Count of 28.

B46 gave a Count of 29.

B47 gave a Count of 31.

In the case of B48, the Count came out at 28.

Regarding B49, the Count came out at 30.

Take B50: the Count amounted to 30.

Molecule B51 came in with a Count of 28.

Consider B52, for which the Count was determined as 30.

As for B53, the Count was found to be 27.

The molecule B54 displayed a Count of 30.

Take B55: the Count came to 28.

Molecule B56 showed a Count of 27.

B57 yielded a Count of 27.

Regarding B58, the Count was 28.

As to B59, the Count was found to be 30.

In the case of B60, the Count is 31.

The molecule B61 gave a Count of 30.

Molecule B62 gave a Count of 31.

With B63, the Count is 29.

B64 gave a Count of 28.

With B65, the Count came to 31.

In turn, B66 yielded a Count of 29.

For the molecule B67, the Count is 30.

B68: the Count amounted to 31.

Consider B69, for which the Count came out at 31.

B70: the Count worked out at 29.

In turn, B71 returned a Count of 29.
